The nature of this data set: soluble fraction after stress (log2 fold change); higher = more stays soluble; pooled small domains, quantitative proteomics. The note with it: stress: pH 4. The gist of the method:
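Custom libraries of small protein domains were pooled and measured with high-throughput quantitative proteomics after pH 4 stress. The read-out is the fold change in the amount of each domain that stays soluble after the acid stress, taken as a measure of aggregation propensity. Fold changes are on a log2 scale, and higher values mean more of the domain stayed soluble.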

As to “HMFDDEELDTFAGRQSDSYDQQEVEQFSDVLHTMRQDEVQAWWRSLTLRGISLPDELKDEVIML”, the “soluble fraction (log2)” value was -1.6.

Take “HMFDDLSTNLRDLAHNYIEKYSPSKQQLKVFLLKKYLMKFKGSKTKKEISEIIDKIISNLEENKYLNDEL”: the “soluble fraction (log2)” value was 0.179.

Take “HMFDFMVLGQAIKKARESKEMTREQLAEILDVAPRHIQSIENEGQYPSFPLFIRLVTMFNISVDQY”: the “soluble fraction (log2)” value was -1.4.

As to “HMFDGNIKIVEDAFSVTIVARGTEVKISGDPENVYLASKTVEGLLTLIDKGEAITDQRVHYVIGLVREG”, the “soluble fraction (log2)” value is -1.71.

With “HMFDGTLSIYPNPSKGIFNLDLLNVKDGEYTITVDNLLGQEVYSEIRNVINSSSKTLDLSNLTKGV”, the “soluble fraction (log2)” value is -0.433.

Consider “HMFDLKKIYGTILDETKSSLLLSTDDGREVQIIKTDGTEVLASGLGVYVEVAYRDETPDGYPIALTI”, for which the “soluble fraction (log2)” value is -0.298.

For “HMFDTVKIGKRIAELRKKRDMTQFELADRLGISYQAVSNWERGNSMPDIAKLPELAEIFGVTVDEILG”, the “soluble fraction (log2)” value turned out to be 0.135.

For the sequence “HMFEARNTTFSEDGKTITETYGVKRIETEFVSDSTIVQKLYDNDVLTKTKTITFSADGLSIKEDV”, the “soluble fraction (log2)” value is -1.33.

With “HMFEDYNELDEYLETRFIPTYVLLKQRKNANGEIDHFPSIRLQHIMALKLSEAELEHVMNYLKEKNIRVG”, the “soluble fraction (log2)” value is -0.182.

On to “HMFEKVKLTLTIPSKYSGSTYSALRNRMNKFSKEEWLSNGDLKIEIEVTGGQKTDIYTLINKLTNGEAIIE”, for which the “soluble fraction (log2)” value is -0.203.

In the case of “HMFELDELDLVILKNLANGLSKKQIRVKLKKMDLRPNSESAIDKRVSKLFDEFGAKNSTELVAKLIREGL”, the “soluble fraction (log2)” value is -0.234.

In the case of “HMFELTVGTPIRVIREPYFGKLGTVTELPAQLMVVESGTEVRVLKAKIEGEGEVLVPRANVEIIATG”, the “soluble fraction (log2)” value was -0.77.

Consider “HMFELVKISENIPIRDLAETLKTTPNEIIKELMVFGVLANINQTLNFDLASKVADKLGFEVELL”, for which the “soluble fraction (log2)” value is -0.363.

Turning to “HMFEMPTSLVRTLSAIAIKQPVMQSEIIKLRGAGAYDHIKELIIRELVHRKEEGRSPILTTTKKFQEYFRL”, the “soluble fraction (log2)” value was -0.948.

As to “HMFERIYVFSRDGDIIELPKGSTVLDFAYHVHTHVGNRAQAARVNKRYVPLTYQLKTGEQVEIIIS”, the “soluble fraction (log2)” value is -1.05.

For the sequence “HMFEYDEEEYEKLGPNADLTIKSMTDWGQSLVRKGVWSESDFEEFKIMGGTAQGLRALQKVRSYY”, the “soluble fraction (log2)” value was -1.25.

Turning to “HMFFAGLSPEAARTLDSLPLHSWSSVEQIARQAGLNIETVRKELGLLELSGIALSRQGRFRRA”, the “soluble fraction (log2)” value stood at 0.0761.

With “HMFFFILNKGAKSGGEITHAVLNGSIVSKPAGWDAFHGLVLAKEKLSSEEIQRQMKELGVEMEIVPL”, the “soluble fraction (log2)” value is -1.18.

For the sequence “HMFGDQMQSYLSRLSQIDVDIIALKYGDNFTYREIGLILEMSEDSVRQRAVRARKKLETMIQKG”, the “soluble fraction (log2)” value was -1.29.

As for “HMFGEDNLKSKEIKERVTEVAKHADDPVWIEARRKWKDENPDQNVKDYQQAYISGRIHELPWDVSYI”, the “soluble fraction (log2)” value was -0.0276.

“HMFGEKEFYQWIGKTAGEKFSGLPAAVIKSLYKYWREYNLSEEDIMGFIRQTELLPKRTPLDVELFFEK”: the “soluble fraction (log2)” value was -1.36.

In the case of “HMFGELTPDTAKRFLLTAREQEMASLIAQGLTNKEIAFRLGISEATVRTHIYNLFQKVGVQSRIELLNVLH”, the “soluble fraction (log2)” value was -0.162.

Take “HMFGNTGETSGTGVAFTRSPVDGENKIFGEFLVNAQGEDVVAGIRTPQPISEMEQAFPEVYSKFESVAEIL”: the “soluble fraction (log2)” value is -0.305.

With “HMFHDALVSFAERRVIFMKELVNRLNEARKAYYEGESIMSDKEYDNLYDKLVKMELTTGVVLPNSPTEEVG”, the “soluble fraction (log2)” value is -0.754.

As for “HMFIEHSKYKLSFKYNQLGKISNVINSNNGIIMDKHFDQNITLLAKLTENTFQEIIKHFPTIIIKRL”, the “soluble fraction (log2)” value was -0.539.

As for “HMFIEPPSLEELERRLRGRGTETDDVVDMRMRTALVELSQKMEYDYRLVNDDLDEATRQLVAYVNEIAEQ”, the “soluble fraction (log2)” value was -0.679.

Consider “HMFIPMTDAQRHLFANKLAKLPELSEYSRGTESYEDFAIRIADMLLEPPKFRMFYPLLEQLGF”, for which the “soluble fraction (log2)” value is -1.19.

Regarding “HMFIVTDQMQRVLDYITEKEKATNNDLEELLGVKSTRIYTITRKLIQHNLIIPVGKGKNKYYIL”, the “soluble fraction (log2)” value was -0.724.

On to “HMFKDVTVPSVINKTEAEATNMLKGLNLVVSVEYEENANKSDGIVTAQNVNANKVIKEGETVTITVNKQP”, for which the “soluble fraction (log2)” value worked out at 0.22.

Take “HMFKNWMPFDEARIFVRKLKFNSHDEFRKYLKANEINIPSKPWSTYKGKGWVSIGDFLGTHR”: the “soluble fraction (log2)” value was -0.308.

In the case of “HMFLPGETFDVKIVKIGEGENQGVGYLDDGTMIVIENGRDHLNELARVIVTRVLQNSAGQMIFSDYEE”, the “soluble fraction (log2)” value was -1.76.

Take “HMFLTPLEETRLAIEEVVIAKNIAIDLFPRESAIRKQQHELIYHYHLKGLTVGTEKNKRLRIFPRGY”: the “soluble fraction (log2)” value is -0.52.

Turning to “HMFLTSDEGKIMQLLEDKQRITRKDAQELLGVSQSTAGRILKTLVDNGQITQRGGGRTTRYELIK”, the “soluble fraction (log2)” value came to 0.22.

For “HMFMKNTEVALAIKGKFSNQTTITSKELVLFLSDLFPELSNKTIPWKINQLKAENLIYQTGRGIYTFN”, the “soluble fraction (log2)” value is -0.809.

As for “HMFMMVAGHLQIKNEKYYMVLELRTEQGERKTKWIGTGLAVKGNKRRAEAMLEETRTKYLSPV”, the “soluble fraction (log2)” value was -0.177.

On to “HMFMPGTIIKQFRELRNYSQDYVSRKMGISQNAYSKIENNITQLTVTHVKQLSSILDVPIVELLR”, for which the “soluble fraction (log2)” value is -0.366.

Take “HMFMSDDDIRILVKEWLQSQNRKSYQLAEEIGIRPQTFYAQMSVRKISANTKKALSRIIPGL”: the “soluble fraction (log2)” value was found to be 0.0503.

As to “HMFMSKTAMVAIISEADKYGLFNIPEGLSVEKTADEIFEGHIEVDFDKLKNELDFVYKNEALEKQFQEN”, the “soluble fraction (log2)” value is -1.

With “HMFNPEQDPKQLTGRERAVADLIGLGANNAEIAIRLSMSERTVKAHLTSIFQQLNVRDRVQLALVMNQL”, the “soluble fraction (log2)” value was -0.541.

For “HMFPASQPVPTDLNQIVRAGLEVFSGRLEGIDVRVSLEPELPRVNVDPEHFKRIVVNLVDNAAEAMQNS”, the “soluble fraction (log2)” value is -0.0189.

“HMFPATAPQLKAVHAILGKQGISDELDKLARVNEWLVGLNKEPVAAISELDKHTTSGLIDHLQGELNE”: the “soluble fraction (log2)” value is -0.131.

Consider “HMFPDLSPEQQRIVDVLTKSNDLQLNQLSVKTGIPIGDITSILFQMEMMGVVKPMAGGNYHLL”, for which the “soluble fraction (log2)” value was -0.0768.

Consider “HMFPDLTEDEQLIVDVLQRTGDLQINSLIVEANIPVNKMSEILFELEMKGVIRTLAGGVYQLL”, for which the “soluble fraction (log2)” value was -1.84.

Take “HMFPDRLRELRKGRNITLETLAEEMNKHLEPGQKPNTAAQIGNWERGDRSPSYIEVRKLADFFNVSMDFL”: the “soluble fraction (log2)” value was -0.512.

In the case of “HMFPELNAEETQVVQLLQKQTEGMQVNSLVVESNIPITRMSGILFELELKGIIRNYAGGVYKL”, the “soluble fraction (log2)” value is -0.951.

Consider “HMFPELSEEAKVIVDALSKENDQQLNVLIANTGMAVGTMQAKLFELEMQGVVKPLAGSVYHLM”, for which the “soluble fraction (log2)” value came out at 0.22.

Turning to “HMFPELTDDEQLIVSTLAKTNDMQINMLAVRTGIPVQRMSALLFSLEMKGVVKMYAGGTYHLL”, the “soluble fraction (log2)” value is -0.0499.

On to “HMFPNQLLISRLSNQLSASERFAAVSSIAQLKNIDYDVLHVLVHTMNSDPNSNVRLAALEALSR”, for which the “soluble fraction (log2)” value is -0.313.

On to “HMFPQQGEIRQGVIASITPDQILVNVGTKSEGIISGKELEAISKSERDSLNVDQKIAVYILDPEDSNG”, for which the “soluble fraction (log2)” value was -0.391.

As to “HMFQNPSQVVTTRVGELRAAIPTAQQGRITMGVAVVEDANSVRSVLISTSEPRGYLRPGVTLGPGETMV”, the “soluble fraction (log2)” value was 0.106.

Regarding “HMFQPFFENLRKASIPVSLREYLTFLEGMKKGLVTYDIEAFYFLARAAMVKDERNIDKFDRAFSATFKG”, the “soluble fraction (log2)” value came out at 0.0456.

For the sequence “HMFQTAADVAYRIISQKILDGEFPPGMKLSRRKMAEVTSVSVIPVIEALKKLEEDGLVESKPQWGSFVTI”, the “soluble fraction (log2)” value was -0.246.

Regarding “HMFQYEKIKDYILTGLEEGTWQAGDKIPSEAELVMSLNVSRMTVNRAVRELANSGLLVRIPGAGTFVATE”, the “soluble fraction (log2)” value is -0.886.

For the sequence “HMFSIDRNIRRLRKEAGLTQEELAQKLFVTRQTISLWELGKVHPDLETLQKLAEQFQVDLLQVLYGPE”, the “soluble fraction (log2)” value is -2.41.

As for “HMFSLDMDRLVRPGFMASGNVTFSDGVTGKWALDQMGRLALETAQKGYQPSPADVQAFQRELQQQLQRQG”, the “soluble fraction (log2)” value is -0.178.

In the case of “HMFSPTKLKEKRESQGLSQSQLASSLGISRASYFNWESGKTKPNQNNLSKLSEILNVDPRYF”, the “soluble fraction (log2)” value was found to be 0.0274.

On to “HMFSSVSVPAELSNQRFDKVVAELTPDLSRSKIKQLILLGKVLLNGEVTPPKQKVETGDEIEIFYTRQIE”, for which the “soluble fraction (log2)” value was -0.23.

With “HMFTLDIGTIIRNRRLELNLTLEEIGNAVGVSKSTVQKWENGFISNMKRDKISALAKVLNINPVTLITGEY”, the “soluble fraction (log2)” value was -0.711.

Consider “HMFTLNEIIGQKIRNARISAGLTLDELSKMTGISAAQLSSLETGYRRANIDTLYAIAKAIGIDVSNLLKY”, for which the “soluble fraction (log2)” value was -0.626.

As for “HMFTRFTVAQDGWTIGGFTAKEMAVSTAKQHAVDTGKPVTVVAHVAGGGSREAIFNSDGTNDKIWN”, the “soluble fraction (log2)” value amounted to 0.157.

Regarding “HMFTYEETIGKSADVYLTIPALKAGKGKIIISVRGSVHELDAMTNNAEKISTGAVVKIVRIEHGNILLVEN”, the “soluble fraction (log2)” value was -0.44.

For “HMFVEKDSIINKGNNSYNFVITDNNNKVLVEYNGLLPDLFKEEQGVVIEGRLKSDFIIHAFTVF”, the “soluble fraction (log2)” value is -0.462.

Consider “HMFVGVDMAVKEEIGKEGVAFTDLRPAGKVSIGDDVYDAVSETGAFITRGTSVRVLKYQAGQVYVVK”, for which the “soluble fraction (log2)” value turned out to be 0.354.

Consider “HMFVTFFHELKSAGVPVSLREYLTLMEAMDRDLASRRVEEFYYLARTALVKDERNLDKFDRVFGHVFKGL”, for which the “soluble fraction (log2)” value was -1.69.

On to “HMFWVESDVDFVDKTSAHNAIKENERVIGMYISYRLNGTWTTEQYVGIDTSKDNWENPDNWNIL”, for which the “soluble fraction (log2)” value was -0.381.

For “HMFYLPEPLTEQELRILGMLLDGRSNPEIAAELFIAVGTAKWHVHNILQKLGVANRAQAIVKAHELGLT”, the “soluble fraction (log2)” value is -1.88.

For “HMFYNELMNFIVYKDSQKIGKIVNINDKLPQPVFEVLINDKKFMVPIHDDFIEKIDKEKKSIHIVIPDGLL”, the “soluble fraction (log2)” value was -1.01.

On to “HMFYWTDLIGLDVINTADERLGKVVGLIETGANAVLRVMGDDQVERLLPFGSAVVLTVEKEAGQIRVEW”, for which the “soluble fraction (log2)” value is -2.05.

Consider “HMGAARVTPLYNLRLREGPSTATARLDVVPRGTTLEVRAWDETGDWAQVEYRGQIGWIAAWLAEVEGEAP”, for which the “soluble fraction (log2)” value is -0.739.

For the origin of these results see the domain aggregation screens of Martell et al. (2025).
